This passage reports binding result and Kd results from patent publication US20240327530A1 (ICHNOS SCIENCES, published 2024).

The labels stand for the following.
B1: Anti-IL-1RAP-UCP02-C8-Fab (Fab, V domains shown)
VH: QVQLVQSGAEVKKPGSSVKVSCKASGGQFSEYAIQWVRQAPGQGLEWMGYIIPLHGQVDYAQKFQGRVTITADESTSTAYMELSSLRSEDTAVYYCARGQTLYDSGRQFDIWGQGTLVTVSS
VL: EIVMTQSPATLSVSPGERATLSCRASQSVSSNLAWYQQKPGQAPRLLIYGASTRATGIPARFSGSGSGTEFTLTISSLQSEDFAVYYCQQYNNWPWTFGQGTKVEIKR
notes: also called anti-IL-1RAP-C8; anti-IL-1RAP-C8 Fab
B2: Anti-IL-1RAP-UCP03-F4-Fab (Fab, V domains shown)
VH: QVQLVQSGAEVKKPGSSVKVSCKASGGGFSEYAIHWVRQAPGQGLEWMGAILPEQGAAYYAQKFQGRVTITADESTSTAYMELSSLRSEDTAVYYCARVGLYVPYMDIWGQGTLVTVSS
VL: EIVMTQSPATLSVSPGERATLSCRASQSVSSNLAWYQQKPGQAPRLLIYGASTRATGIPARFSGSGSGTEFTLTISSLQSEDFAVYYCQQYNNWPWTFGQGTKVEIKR
B3: Anti-IL-1RAP-UCP02-C5-Fab (Fab, V domains shown)
VH: QVQLVQSGAEVKKPGSSVKVSCKASGGHFNIYAISWVRQAPGQGLEWMGYIIPSLGAVDYAQKFQGRVTITADESTSTAYMELSSLRSEDTAVYYCARASIYHGWMAYWGQGTLVTVSS
VL: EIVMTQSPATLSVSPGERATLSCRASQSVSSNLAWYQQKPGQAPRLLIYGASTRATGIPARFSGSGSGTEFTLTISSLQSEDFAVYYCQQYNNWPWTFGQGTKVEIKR
B4: Anti-IL-1RAP-UCP02-G11-Fab (Fab, V domains shown)
VH: QVQLVQSGAEVKKPGSSVKVSCKASGGQFNDYAIHWVRQAPGQGLEWMGYIIPAYGQAEYAQKFQGRVTITADESTSTAYMELSSLRSEDTAVYYCARVPYSTAYFDYWGQGTLVTVSS
VL: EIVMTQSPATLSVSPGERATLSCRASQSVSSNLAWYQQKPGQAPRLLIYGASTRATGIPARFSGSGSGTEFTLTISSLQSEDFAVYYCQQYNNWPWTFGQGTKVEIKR
B5: Anti-IL-1RAP-UCP02-A4-Fab (Fab, V domains shown)
VH: QVQLVQSGAEVKKPGSSVKVSCKASGGVFSYYAISWVRQAPGQGLEWMGAIIPDFGHTIYAQKFQGRVTITADESTSTAYMELSSLRSEDTAVYYCARASPYKGWWDYWGQGTLVTVSS
VL: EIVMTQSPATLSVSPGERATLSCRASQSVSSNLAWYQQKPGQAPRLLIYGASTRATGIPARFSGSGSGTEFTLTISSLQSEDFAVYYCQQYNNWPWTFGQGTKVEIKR
B6: Anti-IL-1RAP-UCP02-H8-Fab (Fab, V domains shown)
VH: QVQLVQSGAEVKKPGSSVKVSCKASGGVFSGYAISWVRQAPGQGLEWMGGIIPEFGATNYAQKFQGRVTITADESTSTAYMELSSLRSEDTAVYYCARHSSAYSPWFDYWGQGTLVTVSS
VL: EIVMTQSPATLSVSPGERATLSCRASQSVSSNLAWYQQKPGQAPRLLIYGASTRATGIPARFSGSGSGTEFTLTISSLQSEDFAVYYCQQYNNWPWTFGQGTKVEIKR
B7: Anti-IL-1RAP-UCP02-C9-Fab (Fab, V domains shown)
VH: QVQLVQSGAEVKKPGSSVKVSCKASGGVFSYYAFHWVRQAPGQGLEWMGGIIPGYGATFYAQKFQGRVTITADESTSTAYMELSSLRSEDTAVYYCARPVSYSSGWYDYWGQGTLVTVSS
VL: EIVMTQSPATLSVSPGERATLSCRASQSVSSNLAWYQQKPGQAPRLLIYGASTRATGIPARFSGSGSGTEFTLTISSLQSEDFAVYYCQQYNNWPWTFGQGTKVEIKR
B8: Anti-IL-1RAP-UCP02-H9-Fab (Fab, V domains shown)
VH: QVQLVQSGAEVKKPGSSVKVSCKASGGPFSSYALSWVRQAPGQGLEWMGGIIPHHGATYYAQKFQGRVTITADESTSTAYMELSSLRSEDTAVYYCARHPDVYTPWFDVWGQGTLVTVSS
VL: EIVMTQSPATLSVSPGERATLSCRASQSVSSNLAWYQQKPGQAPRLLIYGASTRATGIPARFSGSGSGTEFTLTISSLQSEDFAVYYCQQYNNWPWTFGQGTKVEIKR
B9: Anti-IL-1RAP-UCP02-D2-Fab (Fab, V domains shown)
VH: QVQLVQSGAEVKKPGSSVKVSCKASGGRFSDSAIHWVRQAPGQGLEWMGYILPQFGAPLYAQKFQGRVTITADESTSTAYMELSSLRSEDTAVYYCARGSYYGVVGYVPDDYWGQGTLVTVSS
VL: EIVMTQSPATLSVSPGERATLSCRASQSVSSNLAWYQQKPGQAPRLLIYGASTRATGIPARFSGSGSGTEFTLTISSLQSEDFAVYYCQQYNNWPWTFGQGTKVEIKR

One experiment deals with T1, Recombinant mouse IL-1RAP Fc fusion protein (Sino Biologicals, catalog no. 52657-M02H) (mouse, UniProt Q61730 21-350).
T1 construct: Bought; not shown: Fc part of the bought fusion protein
T1 sequence: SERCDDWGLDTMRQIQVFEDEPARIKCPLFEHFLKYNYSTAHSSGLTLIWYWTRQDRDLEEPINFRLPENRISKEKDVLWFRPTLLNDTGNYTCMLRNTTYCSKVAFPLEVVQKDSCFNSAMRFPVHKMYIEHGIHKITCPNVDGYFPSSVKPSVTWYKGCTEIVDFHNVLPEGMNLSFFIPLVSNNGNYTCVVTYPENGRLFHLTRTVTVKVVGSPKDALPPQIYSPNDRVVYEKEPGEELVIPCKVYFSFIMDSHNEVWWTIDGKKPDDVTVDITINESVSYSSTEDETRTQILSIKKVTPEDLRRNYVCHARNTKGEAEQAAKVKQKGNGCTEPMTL
As to the kind of experiment: SPR, mouse IL-1RAP-Fc captured, Fab as analyte. As for the experimental part: (§1) Surface plasmon resonance (SPR) was used to measure the binding affinities of the Fab fragments for human, cynomolgus monkey and/or mouse IL-1RAP. Affinities were measured on a BIACORE™ T200 instrument (BIACORE™, GE […]®) at 25° C. and analyzed with the BIACORE™ T200 Evaluation Software (v3.1). Measurements were performed on Series S CM5 sensor chips (BIACORE™ T200, BIACORE™, GE […]®, catalog no. BR100530) coupled with anti-human IgG Fc (BIACORE™, GE […]®, catalog no. BR100839) using a commercial amine coupling kit (BIACORE™, GE […]®, catalog no. BR100050) or on Series S BiotinCAPture chips (BIACORE™, GE […]®, catalog no. 28920234). SPR measurements were performed with commercially available recombinant human IL-1RAP Fc fusion protein (Acrobiosystems, catalog no. ILP-H5256) and recombinant mouse IL-1RAP Fc fusion protein (Sino Biologicals, catalog no. 52657-M02H) or with biotinylated recombinant cynomolgus monkey IL-1RAP-avi-his protein produced in-house (SEQ ID NO. 2).
(§2) The affinities to human, cynomolgus monkey and mouse IL-1RAP were assessed by immobilizing IL-1RAP and using Fab fragments as analyte. Around 100 RU of human or mouse IL-1RAP Fc fusion protein were captured on fc2 of a Series S CM5 sensor chip coupled with anti-human IgG Fc and around 150 RU of biotinylated cynomolgus monkey IL-1RAP protein were captured on fc2 of a Series S BiotinCAPture chip. Fab fragments were injected in single cycle kinetic at different concentrations ranging from 7.8 to 500 nM, in HBS-EP+ buffer (BIACORE™, GE […]®, catalog no. BR100669) at a flow rate of 30 μl/min for 3 min on fc1 and fc2 (fc1 being used as reference). Dissociation was monitored for 5 min. After each cycle, the surface was regenerated with 60 μl of regeneration solution provided with anti-human IgG Fc capture kit (BIACORE™, GE […]®, catalog no. BR100839) or BiotinCAPture kit (BIACORE™, GE […]®, catalog no. 28920234) respectively. Experimental data were processed using the 1:1 Langmuir kinetic fitting model. Measurements included zero-concentration samples for referencing. Chi², U- and residual values were used to evaluate the quality of a fit between the experimental data and individual binding models.
A general note: In SPR one partner is held on a chip, and binding of the other changes the refractive index at the surface.
Turning to B1, the binding result was “no binding (tested: 7.8 to 500 nM Fab)”.
On the same count and under the same terms, the value for B2 was “no binding (tested: 7.8 to 500 nM Fab)”; that for B3 was “no binding (tested: 7.8 to 500 nM Fab)”.
The same measure, in the same setting: the value for B4 was “no binding (tested: 7.8 to 500 nM Fab)”; that for B5 was “no binding (tested: 7.8 to 500 nM Fab)”.
Take B6: the binding result is recorded as “no binding (tested: 7.8 to 500 nM Fab)”.
Turning to B7, the binding result is “no binding (tested: 7.8 to 500 nM Fab)”.
On the same count and under the same terms, then B8, with “no binding (tested: 7.8 to 500 nM Fab)”; and B9, with “no binding (tested: 7.8 to 500 nM Fab)”.

The next experiment deals with T2, Recombinant human IL-1RAP Fc fusion protein (Acrobiosystems, catalog no. ILP-H5256) (human, UniProt Q9NPH3 21-359, limits assumed).
T2 construct: Bought; not shown: Fc part of the bought fusion protein
T2 sequence: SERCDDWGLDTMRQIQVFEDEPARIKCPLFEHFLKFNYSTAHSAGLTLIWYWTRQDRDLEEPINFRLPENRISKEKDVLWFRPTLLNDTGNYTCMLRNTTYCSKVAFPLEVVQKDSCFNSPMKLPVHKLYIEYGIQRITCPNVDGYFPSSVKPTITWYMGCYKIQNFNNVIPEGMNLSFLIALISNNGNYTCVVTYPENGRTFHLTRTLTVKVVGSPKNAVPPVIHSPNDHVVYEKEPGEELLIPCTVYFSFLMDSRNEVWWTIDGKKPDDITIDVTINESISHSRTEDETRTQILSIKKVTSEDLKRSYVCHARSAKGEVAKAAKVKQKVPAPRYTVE
As to the kind of experiment: SPR, human IL-1RAP-Fc captured, Fab as analyte, 1:1 fit. How it is done: as §1, §2
Turning to B1, the dissociation constant Kd was 2.2 nM.
On to B2, for which the Kd worked out at 888 nM.
Same read-out and setting: the value for B3 was 368 nM; that for B4 was 260 nM; that for B5 was 84.3 nM.
Same read-out and setting: then B6, with 328 nM; and B7, with 35.6 nM.
The same measure, in the same setting: then B8, with 907 nM; and B9, with 49 nM.

The target of the next experiment is T3, Recombinant cynomolgus monkey IL-1RAP-ECD(S21-E359)-avi-his protein (cynomolgus monkey, UniProt P59822 21-359 (rhesus entry)).
T3 construct: also called cyno IL-1RAP-ECD-Avi-His; recombinant cynomolgus monkey IL-1RAP-avi-his protein
T3 sequence: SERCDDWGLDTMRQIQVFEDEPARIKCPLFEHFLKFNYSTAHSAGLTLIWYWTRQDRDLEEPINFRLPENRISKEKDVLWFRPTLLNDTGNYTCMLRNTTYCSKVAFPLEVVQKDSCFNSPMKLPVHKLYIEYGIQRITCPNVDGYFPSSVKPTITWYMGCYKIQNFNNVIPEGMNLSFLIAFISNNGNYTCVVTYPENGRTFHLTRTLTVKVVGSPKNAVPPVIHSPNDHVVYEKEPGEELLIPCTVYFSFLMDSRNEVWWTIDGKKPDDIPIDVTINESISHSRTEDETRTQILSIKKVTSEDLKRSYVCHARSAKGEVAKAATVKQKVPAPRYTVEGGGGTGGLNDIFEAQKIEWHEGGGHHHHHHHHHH
Nature of the experiment: SPR, biotinylated cyno IL-1RAP-avi-his captured, Fab as analyte, 1:1 fit. As for the experimental part:
as §1, §2
As for B1, the Kd worked out at 2.2 nM.
Take B3: the dissociation constant Kd was found to be 334 nM.
Still for that read-out and setting: the value for B4 was 345 nM.
For the molecule B5, the Kd turned out to be 103 nM.
The same measure, in the same setting: then B6, with 297 nM.
On the same count and under the same terms, the value for B7 was 27.8 nM; that for B8 was 682 nM.
The same measure, in the same setting: then B9, with 50.9 nM.

One may read the Kd as the constant that tells how readily two partners part at equilibrium.
